Laboratory results: paper PMC2756145

Experiments:
[1] = biological target: T1, Pot1-DBD_V97A (Schizosaccharomyces pombe, UniProt O13988 1-389, V97A); assay: filter binding
T1 sequence: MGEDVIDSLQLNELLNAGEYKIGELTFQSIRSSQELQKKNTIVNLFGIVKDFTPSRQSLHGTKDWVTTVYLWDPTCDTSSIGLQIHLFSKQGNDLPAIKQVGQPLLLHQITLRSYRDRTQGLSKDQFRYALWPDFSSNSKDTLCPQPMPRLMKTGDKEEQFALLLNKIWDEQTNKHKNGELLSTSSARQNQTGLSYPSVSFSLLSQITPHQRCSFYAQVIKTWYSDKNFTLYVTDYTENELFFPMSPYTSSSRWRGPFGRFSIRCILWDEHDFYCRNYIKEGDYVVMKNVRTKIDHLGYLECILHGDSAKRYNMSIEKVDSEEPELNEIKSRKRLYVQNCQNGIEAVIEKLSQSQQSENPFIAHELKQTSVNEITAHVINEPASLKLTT

[2] = biological target: T2, Pot1pC (Schizosaccharomyces pombe, UniProt O13988 178-389); assay: EMSA
T2 sequence: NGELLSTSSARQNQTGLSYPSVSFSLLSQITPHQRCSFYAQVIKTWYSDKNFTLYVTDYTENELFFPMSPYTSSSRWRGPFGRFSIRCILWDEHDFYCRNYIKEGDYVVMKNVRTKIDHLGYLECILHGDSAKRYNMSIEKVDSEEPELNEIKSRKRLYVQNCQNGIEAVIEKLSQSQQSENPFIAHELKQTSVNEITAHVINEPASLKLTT

[3] = biological target: T3, Pot1-DBD_S123A (Schizosaccharomyces pombe, UniProt O13988 1-389, S123A); assay: filter binding
T3 sequence: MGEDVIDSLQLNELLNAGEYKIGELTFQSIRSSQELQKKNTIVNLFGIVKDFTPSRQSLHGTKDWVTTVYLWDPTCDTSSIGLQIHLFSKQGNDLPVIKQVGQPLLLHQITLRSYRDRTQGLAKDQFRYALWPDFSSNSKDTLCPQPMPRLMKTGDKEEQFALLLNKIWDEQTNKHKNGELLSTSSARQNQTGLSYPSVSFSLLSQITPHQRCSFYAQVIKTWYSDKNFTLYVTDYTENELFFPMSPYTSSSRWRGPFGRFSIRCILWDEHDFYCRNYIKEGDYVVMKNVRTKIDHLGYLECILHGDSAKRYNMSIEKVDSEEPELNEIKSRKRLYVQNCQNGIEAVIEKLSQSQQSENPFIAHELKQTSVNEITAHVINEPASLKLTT

[4] = biological target: T4, Pot1-DBD_T62A (Schizosaccharomyces pombe, UniProt O13988 1-389, T62A); assay: filter binding
T4 sequence: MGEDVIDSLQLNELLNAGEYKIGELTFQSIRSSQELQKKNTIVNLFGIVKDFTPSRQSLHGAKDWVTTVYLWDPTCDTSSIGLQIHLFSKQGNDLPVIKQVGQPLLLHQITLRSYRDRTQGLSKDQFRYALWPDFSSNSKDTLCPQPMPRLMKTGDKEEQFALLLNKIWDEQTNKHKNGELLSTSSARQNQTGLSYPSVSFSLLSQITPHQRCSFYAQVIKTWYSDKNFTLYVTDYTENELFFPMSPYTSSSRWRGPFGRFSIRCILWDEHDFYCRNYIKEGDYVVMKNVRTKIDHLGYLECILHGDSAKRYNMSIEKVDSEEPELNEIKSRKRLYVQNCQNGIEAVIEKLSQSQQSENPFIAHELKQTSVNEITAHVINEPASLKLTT

[5] = biological target: T5, Pot1-DBD_Y115A (Schizosaccharomyces pombe, UniProt O13988 1-389, Y115A); assay: filter binding
T5 sequence: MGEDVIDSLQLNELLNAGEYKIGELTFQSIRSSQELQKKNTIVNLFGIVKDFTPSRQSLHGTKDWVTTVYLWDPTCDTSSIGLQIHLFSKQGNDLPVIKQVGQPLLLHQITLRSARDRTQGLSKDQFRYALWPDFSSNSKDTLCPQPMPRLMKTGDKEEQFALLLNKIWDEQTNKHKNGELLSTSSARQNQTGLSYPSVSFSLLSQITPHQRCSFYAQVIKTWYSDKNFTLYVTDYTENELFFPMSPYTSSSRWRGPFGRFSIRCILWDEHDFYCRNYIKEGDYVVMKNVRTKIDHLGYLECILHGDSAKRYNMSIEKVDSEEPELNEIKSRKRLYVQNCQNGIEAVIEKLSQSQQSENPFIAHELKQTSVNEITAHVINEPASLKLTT

Work on GGTTACGGTTAC (ssDNA) [12mer] yielded a Kd [1] of 10 ± 1 nM, a Kd [2] of 700 ± 200 nM and a Kd [3] of 30 ± 2 nM. The Kd [4] was 90 ± 3 nM and the Kd [5] was 80 ± 4 nM.
